Source: the Human Domainome abundance scans (Beltran et al. 2025)

B1: Homeobox protein cut-like 2, residues 895 to 963; numbered along this chain, O14529 (parent)
chain: EVDTLELTRQVKEKLAKNGICQRIFGEKVLGLSQGSVSDMLSRPKPWSKLTQKGREPFIRMQLWLSDQL

Variants of: B1
Assay: abundance fitness (aPCA) (normalised: wild type 0, dead -1); higher = more abundant; growth selection in yeast, the domain comes from the species named
Settings: Homo sapiens

Abundance fitness of substitutions, site by site:
R60: S -0.396, Y -0.633, E -0.631, I -0.653, F -1.08, T -0.209, V -0.863, H -0.462, M -0.38, N -0.413, A -0.27, D -0.905, G -0.287, Q -0.111, L -0.215, C -0.681, K 0.15, P -0.912, W -0.553
K49: F -0.281, N -0.16, Y -0.301, Q 0.034, H 0.009, I -0.112, S -0.079, P -0.731, L 0.002, T -0.035
W64: A -1.17, C -0.946, P -0.806, T -1.31, I -1.19, G -0.942, D -1.06, F -0.222, R -0.945, S -1.3, K -0.899, H -1.08, Q -0.907, N -0.678, Y -0.372, L -0.822, V -1.15, M -1.06
M61: Q -1.02, A -0.093, Y -1, H -0.812, K -1.05, E -1.02, D -0.702, V -0.418, L -0.191, R -0.935, S -0.606, F -0.157, G -0.735, C -0.292, W -0.379
S66: R 0.028, V -0.066, K 0.109, N 0.189, H 0.005, W -0.08, Q 0.002, P -0.998, M -0.085, F -0.2, T -0.008, I -0.039, A -0.045, E -0.069, D 0.094, Y -0.001, C -0.048, G 0.048, L -0.104
L63: D 0.07, T -0.003, F -0.274, Y -0.115, N -0.006, Q 0.078, W -0.271, K 0.113, R 0.096, I -0.213, H 0.012, S 0.069, E 0.037, A 0.058, G -0.19, V -0.103, M 0.041, P -0.728, C -0.127
P57: M 0.073, Y 0.027, E -0.139, F -0.028, H -0.026, W -0.102, A -0.016, C -0.139, G -0.456, V -0.117, R -0.081, S -0.034, D -0.085, T 0.017, K -0.058, L 0.087, I 0.044, Q -0.036
L65: G -0.952, F -0.193, H -0.696, K -0.726, W -0.44, S -0.962, I -0.278, T -0.975, A -0.694, M -0.294, R -0.782, Q -0.926, E -1.28, Y -0.56, N -0.973, D -0.841, P -1.03, C -0.511
S48: R -0.13, H -0.011, L -0.191, N -0.055, T -0.085, V -0.259, K -0.088, Q -0.085, F -0.19, P -0.229, Y -0.084, I -0.223, W -0.387, E -0.103, M -0.323
Q62: M -0.153, G -0.06, W 0.005, V -0.367, D -0.654, F -0.69, A -0.098, K 0.17, T -0.308, C -0.263, S -0.079, N -0.401, I -0.277, H -0.127, Y -0.278, R 0.015
